Test system: P18IIIB-I10 peptide-pulsed 51Cr labeled P815 targets
Assay: CTL 51Cr release assay with PP, LP or SP effector cells of immunized mice
Assay type: in vivo, BALB/c mice
Settings: day 35

B1: rmIL-12 (protein, UniProt P43431 23-215; P43432 23-335, looked up)
Interleukin-12 subunit alpha: RVIPVSGPARCLSQSRNLLKTTDDMVKTAREKLKHYSCTAEDIDHEDITRDQTSTLKTCLPLELHKNESCLATRETSSTTRGSCLPPQKTSLMMTLCLGSIYEDLKMYQTEFQAINAALQNHNHQQIILDKGMLVAIDELMQSLNHNGETLRQKPPVGEADPYRVKMKLCILLHAFSTRVVTINRVMGYLSSA
Interleukin-12 subunit beta: MWELEKDVYVVEVDWTPDAPGETVNLTCDTPEEDDITWTSDQRHGVIGSGKTLTITVKEFLDAGQYTCHKGGETLSHSHLLLHKKENGIWSTEILKNFKNKTFLKCEAPNYSGRFTCSWLVQRNMDLKFNIKSSSSSPDSRAVTCGMASLSAEKVTLDQRDYEKYSVSCQEDVTCPTAEETLPIELALEARQQNKYENYSTSFFIRDIIKPDPPKNLQMKPLKNSQVEVSWEYPDSWSTPHSYFSLKFFVRIQRKKEKMKETEEGCNQKGAFLVEKTSTEVQCKGGNVCVQAQDRYYNSSCSKWACVPCRVRS
- change in HIV-specific CTL activity in mucosal or systemic sites, rmIL-12 by IP route (1 μg IP each day of IR immunization with PCLUS3-18IIIB 50 μg): did not lead to significant changes
- change in CTL level in mucosal and systemic sites, rmIL-12 + DOTAP intrarectally with peptide (1 μg IR): significant increase in the CTL level
- induction of mucosal or systemic CTL in IR-immunized IFNγ−/− mice treated mucosally with rmIL-12 (rmIL-12 1 μg/mouse + DOTAP IR with peptide): did not lead to the induction of mucosal or systemic CTL
